The supplement of paper PMC9112550, “Optimization of the antimicrobial peptide Bac7 by deep mutational scanning” (BMC Biology, 2022)

Tested on: Escherichia coli TOP10
Assay: shrunken log2 fold change of peptide-encoding DNA abundance (4.5 h post-induction vs induction); higher = less antimicrobial activity (less host growth inhibition)
Conditions: time post-induction: 4.5 h; library: site-saturation at positions 5, 18, 19, 20
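Further: peptides expressed intracellularly from a pBAD plasmid library in pooled LB shake-flask culture, induced with 0.3% L-arabinose, DNA abundance read by NGS, three biological replicates, DESeq2 with apeglm shrinkage.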

| Sequence | shrunken log2 fold change |
| --- | --- |
| RRIRKRPPRLPRPRPRPCIQPRP | 0.0636 |
| RRIRPRPPRLPRPRPRPMNIPRP | -0.793 |
| RRIRDRPPRLPRPRPRPFTIPRP | -0.0247 |
| RRIRGRPPRLPRPRPRPCMDPRP | 0.714 |
| RRIRCRPPRLPRPRPRPMNCPRP | -0.0537 |
| RRIRGRPPRLPRPRPRPITRPRP | 0.133 |
| RRIRIRPPRLPRPRPRPQRHPRP | -0.401 |
| RRIRRRPPRLPRPRPRPVPSPRP | 0.488 |
| RRIRKRPPRLPRPRPRPEQFPRP | -0.0303 |
| RRIRDRPPRLPRPRPRPANHPRP | -0.438 |
| RRIRIRPPRLPRPRPRPKSWPRP | 0.327 |
| RRIRLRPPRLPRPRPRPFMAPRP | -0.343 |
| RRIRMRPPRLPRPRPRPCWVPRP | 0.827 |
| RRIRQRPPRLPRPRPRPRVWPRP | 0.163 |
| RRIRVRPPRLPRPRPRPVDFPRP | -0.289 |
| RRIRHRPPRLPRPRPRPTGAPRP | 0.0132 |
| RRIRNRPPRLPRPRPRPARWPRP | 0.531 |
| RRIRRRPPRLPRPRPRPRYMPRP | -0.378 |
| RRIRARPPRLPRPRPRPAQMPRP | 0.743 |
| RRIRARPPRLPRPRPRPRGNPRP | 0.494 |
| RRIRFRPPRLPRPRPRPGQMPRP | 0.172 |
| RRIRYRPPRLPRPRPRPQHAPRP | -0.313 |
| RRIRHRPPRLPRPRPRPCSVPRP | -0.00861 |
| RRIRMRPPRLPRPRPRPNFLPRP | -0.0651 |
| RRIRIRPPRLPRPRPRPCHTPRP | -0.0495 |

| Sequence | shrunken log2 fold change |
| --- | --- |
| RRIRLRPPRLPRPRPRPQKTPRP | -0.03 |
| RRIRFRPPRLPRPRPRPVTPPRP | 0.241 |
| RRIRMRPPRLPRPRPRPRHRPRP | 0.249 |
| RRIRKRPPRLPRPRPRPIMMPRP | -0.0529 |
| RRIRTRPPRLPRPRPRPCERPRP | -0.018 |
| RRIRCRPPRLPRPRPRPAPCPRP | 0.122 |
| RRIRVRPPRLPRPRPRPMMDPRP | -0.154 |
| RRIRERPPRLPRPRPRPKCGPRP | 0.0971 |
| RRIRFRPPRLPRPRPRPSKWPRP | -0.273 |
| RRIRARPPRLPRPRPRPRKKPRP | 0.404 |
| RRIRERPPRLPRPRPRPFFLPRP | -0.384 |
| RRIRLRPPRLPRPRPRPMVWPRP | 0.0457 |
| RRIRNRPPRLPRPRPRPDDCPRP | -0.108 |
| RRIRARPPRLPRPRPRPCTIPRP | -0.000283 |
| RRIRYRPPRLPRPRPRPYQFPRP | -0.183 |
| RRIRHRPPRLPRPRPRPYMNPRP | -1.04 |
| RRIRLRPPRLPRPRPRPWCTPRP | 0.0254 |
| RRIRIRPPRLPRPRPRPTWPPRP | 0.368 |
| RRIRYRPPRLPRPRPRPPSDPRP | -0.185 |
| RRIRIRPPRLPRPRPRPNCWPRP | 0.0114 |
| RRIRPRPPRLPRPRPRPHVIPRP | -0.617 |
| RRIRQRPPRLPRPRPRPHLGPRP | -0.00552 |
| RRIRYRPPRLPRPRPRPCVGPRP | -1.87 |
| RRIRLRPPRLPRPRPRPHTIPRP | -0.165 |
| RRIRCRPPRLPRPRPRPQLYPRP | -0.236 |

| Sequence | shrunken log2 fold change |
| --- | --- |
| RRIRHRPPRLPRPRPRPWMLPRP | -0.0885 |
| RRIRVRPPRLPRPRPRPQPKPRP | 0.0199 |
| RRIRPRPPRLPRPRPRPCWAPRP | 0.21 |
| RRIRNRPPRLPRPRPRPMYTPRP | -0.48 |
| RRIRVRPPRLPRPRPRPCHQPRP | -0.483 |
| RRIRLRPPRLPRPRPRPKFPPRP | -0.26 |
| RRIRERPPRLPRPRPRPIFIPRP | -0.508 |
| RRIRDRPPRLPRPRPRPHWMPRP | 0.236 |
| RRIRGRPPRLPRPRPRPVTTPRP | 1.21 |
| RRIRWRPPRLPRPRPRPWDKPRP | -0.0732 |
| RRIRPRPPRLPRPRPRPAVHPRP | 0.0984 |
| RRIRRRPPRLPRPRPRPWYGPRP | -0.263 |
| RRIRYRPPRLPRPRPRPMQIPRP | -6.27e-05 |
| RRIRSRPPRLPRPRPRPPFFPRP | 0.143 |
| RRIRARPPRLPRPRPRPQKSPRP | 0.0945 |
| RRIRGRPPRLPRPRPRPGDYPRP | 0.199 |
| RRIRDRPPRLPRPRPRPPHFPRP | 0.173 |
| RRIRNRPPRLPRPRPRPGTYPRP | -0.0105 |
| RRIRYRPPRLPRPRPRPTRQPRP | -0.00287 |
| RRIRLRPPRLPRPRPRPLYWPRP | -0.372 |
| RRIRLRPPRLPRPRPRPEYYPRP | -0.0599 |
| RRIRMRPPRLPRPRPRPHHYPRP | -0.51 |
| RRIRKRPPRLPRPRPRPGYVPRP | -0.0738 |
| RRIRCRPPRLPRPRPRPENYPRP | -0.474 |
| RRIRGRPPRLPRPRPRPTHHPRP | 0.413 |

| Sequence | shrunken log2 fold change |
| --- | --- |
| RRIRKRPPRLPRPRPRPQEEPRP | 0.0428 |
| RRIRFRPPRLPRPRPRPDARPRP | -0.0768 |
| RRIRTRPPRLPRPRPRPMLMPRP | -0.248 |
| RRIRDRPPRLPRPRPRPGMVPRP | 0.548 |
| RRIRPRPPRLPRPRPRPHKEPRP | 0.163 |
| RRIRPRPPRLPRPRPRPGDLPRP | 0.076 |
| RRIRGRPPRLPRPRPRPFLVPRP | -0.0616 |
| RRIRYRPPRLPRPRPRPTNKPRP | -0.699 |
| RRIRDRPPRLPRPRPRPESYPRP | 0.0185 |
| RRIRQRPPRLPRPRPRPTDIPRP | -0.0659 |
| RRIRNRPPRLPRPRPRPPMSPRP | -0.0527 |
| RRIRPRPPRLPRPRPRPNNVPRP | -0.22 |
| RRIRFRPPRLPRPRPRPNYCPRP | -0.499 |
| RRIRLRPPRLPRPRPRPCLEPRP | -0.052 |
| RRIRSRPPRLPRPRPRPFKHPRP | -0.195 |
| RRIRGRPPRLPRPRPRPCLFPRP | 0.346 |
| RRIRWRPPRLPRPRPRPYYEPRP | -0.742 |
| RRIRTRPPRLPRPRPRPVQYPRP | -0.246 |
| RRIRPRPPRLPRPRPRPSNCPRP | -0.909 |
| RRIRLRPPRLPRPRPRPILPPRP | -0.0368 |
| RRIRHRPPRLPRPRPRPIRYPRP | 0.0301 |
| RRIRDRPPRLPRPRPRPMDAPRP | 0.251 |
| RRIRCRPPRLPRPRPRPCWTPRP | -0.223 |
| RRIRKRPPRLPRPRPRPKPRPRP | 1.06 |
| RRIRRRPPRLPRPRPRPQICPRP | -0.0654 |

| Sequence | shrunken log2 fold change |
| --- | --- |
| RRIRHRPPRLPRPRPRPWYQPRP | 0.0124 |
| RRIRSRPPRLPRPRPRPWAAPRP | 0.327 |
| RRIRKRPPRLPRPRPRPMMIPRP | -0.0134 |
| RRIRMRPPRLPRPRPRPIKAPRP | 0.0335 |
| RRIRNRPPRLPRPRPRPKGNPRP | -0.00941 |
| RRIRERPPRLPRPRPRPLATPRP | 0.133 |
| RRIRPRPPRLPRPRPRPFLDPRP | -0.413 |
| RRIRERPPRLPRPRPRPDRTPRP | -0.0361 |
| RRIRSRPPRLPRPRPRPPYIPRP | -0.296 |
| RRIRFRPPRLPRPRPRPPQHPRP | 0.108 |
| RRIRCRPPRLPRPRPRPTPCPRP | 0.281 |
| RRIRSRPPRLPRPRPRPFMYPRP | -0.513 |
| RRIRLRPPRLPRPRPRPQNPPRP | -0.263 |
| RRIRYRPPRLPRPRPRPMWHPRP | -0.156 |
| RRIRTRPPRLPRPRPRPYDMPRP | 0.0197 |
| RRIRTRPPRLPRPRPRPCKKPRP | -0.0502 |
| RRIRWRPPRLPRPRPRPDEDPRP | 0.299 |
| RRIRYRPPRLPRPRPRPRVDPRP | -0.531 |
| RRIRYRPPRLPRPRPRPVCEPRP | 0.0427 |
| RRIRRRPPRLPRPRPRPRNHPRP | -0.0441 |
| RRIRCRPPRLPRPRPRPGNKPRP | -0.223 |
| RRIRERPPRLPRPRPRPMSYPRP | -0.00931 |
| RRIRPRPPRLPRPRPRPDPNPRP | -0.133 |
| RRIRTRPPRLPRPRPRPECAPRP | 0.459 |
| RRIRIRPPRLPRPRPRPAFTPRP | 0.106 |

| Sequence | shrunken log2 fold change |
| --- | --- |
| RRIRNRPPRLPRPRPRPDMTPRP | -0.287 |
| RRIRWRPPRLPRPRPRPEYIPRP | -0.0519 |
| RRIRMRPPRLPRPRPRPEYRPRP | -0.000921 |
| RRIRVRPPRLPRPRPRPINTPRP | -1.07 |
| RRIRWRPPRLPRPRPRPVRFPRP | 0.0694 |
| RRIRDRPPRLPRPRPRPHDHPRP | 0.00042 |
| RRIRTRPPRLPRPRPRPIFGPRP | -0.0261 |
| RRIRMRPPRLPRPRPRPCCVPRP | 0.166 |
| RRIRKRPPRLPRPRPRPCSWPRP | 0.123 |
| RRIRDRPPRLPRPRPRPTFHPRP | -0.148 |
| RRIRCRPPRLPRPRPRPDYMPRP | -0.133 |
| RRIRPRPPRLPRPRPRPQKLPRP | -0.0225 |
| RRIRNRPPRLPRPRPRPDAPPRP | 0.185 |
| RRIRDRPPRLPRPRPRPACFPRP | 0.664 |
| RRIRWRPPRLPRPRPRPHNTPRP | -0.391 |
| RRIRCRPPRLPRPRPRPAHPPRP | 0.125 |
| RRIRIRPPRLPRPRPRPFNHPRP | -0.0691 |
| RRIRFRPPRLPRPRPRPKKDPRP | 0.184 |
| RRIRKRPPRLPRPRPRPRNRPRP | -0.139 |
| RRIRFRPPRLPRPRPRPCHAPRP | -0.193 |
| RRIRWRPPRLPRPRPRPAKRPRP | -0.0468 |
| RRIRRRPPRLPRPRPRPCYPPRP | -0.0837 |
| RRIRGRPPRLPRPRPRPYWCPRP | -0.0844 |
| RRIRCRPPRLPRPRPRPDTQPRP | -0.239 |
| RRIRTRPPRLPRPRPRPLKWPRP | -0.205 |
